Series [1] has as its target T1, WOX11-MBP (Oryza sativa (rice; cultivar of the …, UniProt Q0D3I7 1-262).
T1 sequence: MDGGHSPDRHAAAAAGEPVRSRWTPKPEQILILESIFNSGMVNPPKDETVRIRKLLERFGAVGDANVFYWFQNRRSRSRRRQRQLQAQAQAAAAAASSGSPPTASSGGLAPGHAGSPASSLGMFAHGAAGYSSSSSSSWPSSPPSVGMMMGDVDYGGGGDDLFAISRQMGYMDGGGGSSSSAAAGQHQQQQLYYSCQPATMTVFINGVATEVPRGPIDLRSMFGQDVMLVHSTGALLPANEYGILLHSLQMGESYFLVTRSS
Briefly: EMSA; LightShift Chemiluminescent EMSA Kit (Thermo 20148), manufacturer's instructions; buffer, salt, pH and temperature not stated. The note with it: protein: recombinant; tags: MBP; label: 5' biotin; blunt. On the technique in general: In EMSA bound probe runs differently from free probe, usually more slowly.

The target in series [2] is T1, WOX11-MBP. Briefly: competition EMSA; unlabelled competitor against biotin hot probe N1; LightShift Chemiluminescent EMSA Kit (Thermo 20148), manufacturer's instructions; buffer, salt, pH and temperature not stated. As to conditions: protein: recombinant; tags: MBP; blunt.

Residue numbers refer to the chain shown, from its start.

B1: pOsEXPB7 hot probe (dsDNA)
DNA 1: AGGGATCGATCGAAATTAATGGCGGGCAGGAGCAGGA
DNA 2: TCCTGCTCCTGCCCGCCATTAATTTCGATCGATCCCT
Turning to B1, the binding result in the series with WOX11-MBP [1] is on record as “binds”.

B2: pOsEXPB7 mutant probe (dsDNA)
DNA 1: B1 DNA 1 with T17C, A18C
DNA 2: B1 DNA 2 with T20G, A21G
Consider B2, for which the binding result with WOX11-MBP [1] was “no binding”.

B3: pOsEXPB7 cold probe (dsDNA)
DNA 1: B1 DNA 1
DNA 2: B1 DNA 2
For the molecule B3, in the series with WOX11-MBP [2], the binding result is recorded as “binds”.
